What follows are sequences tested on Escherichia coli TOP10 (assay: shrunken log2 fold change of peptide-encoding DNA abundance (4.5 h post-induction vs induction); higher = less antimicrobial activity (less host growth inhibition)). Conditions: time post-induction: 4.5 h; library: site-saturation at positions 5, 18, 19, 20.
With RRIRYRPPRLPRPRPRPRKQPRP the “shrunken log2 fold change” value was -0.129. In the case of RRIRGRPPRLPRPRPRPQLTPRP, the “shrunken log2 fold change” value is reported as 0.644. RRIRARPPRLPRPRPRPLRDPRP was tested, and the “shrunken log2 fold change” value was 0.948. RRIRPRPPRLPRPRPRPGDIPRP was tested, and the “shrunken log2 fold change” value was -0.027. In the case of RRIRVRPPRLPRPRPRPFTTPRP, the “shrunken log2 fold change” value is reported as -0.211. RRIRIRPPRLPRPRPRPGIYPRP was tested, and the “shrunken log2 fold change” value was -0.585. For RRIRDRPPRLPRPRPRPMQNPRP, the “shrunken log2 fold change” value was 0.269. In the case of RRIRQRPPRLPRPRPRPHNPPRP, the “shrunken log2 fold change” value is reported as -0.33. RRIRMRPPRLPRPRPRPKYNPRP was tested, and the “shrunken log2 fold change” value was -0.446. With RRIRVRPPRLPRPRPRPYNTPRP the “shrunken log2 fold change” value was -0.326. RRIRVRPPRLPRPRPRPDRQPRP was tested, and the “shrunken log2 fold change” value was -0.215. RRIRDRPPRLPRPRPRPLWHPRP was tested, and the “shrunken log2 fold change” value was 0.0123. For RRIRSRPPRLPRPRPRPQLHPRP, the “shrunken log2 fold change” value was -0.175. With RRIRIRPPRLPRPRPRPNPPPRP the “shrunken log2 fold change” value was 0.125. With RRIRVRPPRLPRPRPRPQPPPRP the “shrunken log2 fold change” value was 0.298. RRIRQRPPRLPRPRPRPTHIPRP was tested, and the “shrunken log2 fold change” value was -0.387. For RRIRVRPPRLPRPRPRPAEHPRP, the “shrunken log2 fold change” value was -0.086. In the case of RRIRKRPPRLPRPRPRPIEWPRP, the “shrunken log2 fold change” value is reported as 0.404. In the case of RRIRIRPPRLPRPRPRPNNTPRP, the “shrunken log2 fold change” value is reported as -1.09. With RRIRMRPPRLPRPRPRPFDPPRP the “shrunken log2 fold change” value was 0.0446. In the case of RRIRQRPPRLPRPRPRPWEPPRP, the “shrunken log2 fold change” value is reported as 0.106. For RRIRLRPPRLPRPRPRPGVYPRP, the “shrunken log2 fold change” value was -0.221. RRIRARPPRLPRPRPRPGANPRP was tested, and the “shrunken log2 fold change” value was 0.589. For RRIRDRPPRLPRPRPRPFHCPRP, the “shrunken log2 fold change” value was -0.194. With RRIRQRPPRLPRPRPRPESMPRP the “shrunken log2 fold change” value was 0.00186. For RRIRNRPPRLPRPRPRPLARPRP, the “shrunken log2 fold change” value was 0.107. In the case of RRIRFRPPRLPRPRPRPDMVPRP, the “shrunken log2 fold change” value is reported as -0.499. RRIRRRPPRLPRPRPRPISGPRP was tested, and the “shrunken log2 fold change” value was 0.0239. For RRIRARPPRLPRPRPRPSGDPRP, the “shrunken log2 fold change” value was 0.15. In the case of RRIRMRPPRLPRPRPRPHHQPRP, the “shrunken log2 fold change” value is reported as -0.526. In the case of RRIRYRPPRLPRPRPRPRWCPRP, the “shrunken log2 fold change” value is reported as 0.246. RRIRVRPPRLPRPRPRPSLLPRP was tested, and the “shrunken log2 fold change” value was -0.23. For RRIRKRPPRLPRPRPRPFNFPRP, the “shrunken log2 fold change” value was -0.296. With RRIRVRPPRLPRPRPRPYFPPRP the “shrunken log2 fold change” value was 0.109. With RRIRQRPPRLPRPRPRPPNSPRP the “shrunken log2 fold change” value was -0.0968. In the case of RRIRVRPPRLPRPRPRPHWRPRP, the “shrunken log2 fold change” value is reported as 0.306. With RRIRHRPPRLPRPRPRPFGMPRP the “shrunken log2 fold change” value was -0.0621. RRIRLRPPRLPRPRPRPQNHPRP was tested, and the “shrunken log2 fold change” value was -0.683. With RRIRHRPPRLPRPRPRPEFRPRP the “shrunken log2 fold change” value was 0.00953. RRIRTRPPRLPRPRPRPTMDPRP was tested, and the “shrunken log2 fold change” value was -0.436. RRIRDRPPRLPRPRPRPSNEPRP was tested, and the “shrunken log2 fold change” value was -1.13. In the case of RRIRMRPPRLPRPRPRPDKCPRP, the “shrunken log2 fold change” value is reported as -0.0194. With RRIRNRPPRLPRPRPRPESNPRP the “shrunken log2 fold change” value was 0.0856. For RRIRNRPPRLPRPRPRPGPNPRP, the “shrunken log2 fold change” value was 0.0126. For RRIRTRPPRLPRPRPRPAVEPRP, the “shrunken log2 fold change” value was -0.011. RRIRYRPPRLPRPRPRPLVQPRP was tested, and the “shrunken log2 fold change” value was -0.49. For RRIRYRPPRLPRPRPRPDCLPRP, the “shrunken log2 fold change” value was -0.209. In the case of RRIRCRPPRLPRPRPRPSIDPRP, the “shrunken log2 fold change” value is reported as -0.505. In the case of RRIRVRPPRLPRPRPRPLMLPRP, the “shrunken log2 fold change” value is reported as -0.202. For RRIRFRPPRLPRPRPRPGLPPRP, the “shrunken log2 fold change” value was 0.255. With RRIRCRPPRLPRPRPRPIFTPRP the “shrunken log2 fold change” value was -0.48. RRIRDRPPRLPRPRPRPKPKPRP was tested, and the “shrunken log2 fold change” value was 0.254. RRIRHRPPRLPRPRPRPQAVPRP was tested, and the “shrunken log2 fold change” value was 0.00884. For RRIRYRPPRLPRPRPRPVAGPRP, the “shrunken log2 fold change” value was -0.0147. In the case of RRIRWRPPRLPRPRPRPCHMPRP, the “shrunken log2 fold change” value is reported as -0.0433. RRIRHRPPRLPRPRPRPKGAPRP was tested, and the “shrunken log2 fold change” value was -0.011. With RRIRCRPPRLPRPRPRPQKLPRP the “shrunken log2 fold change” value was -0.188. RRIRFRPPRLPRPRPRPYYNPRP was tested, and the “shrunken log2 fold change” value was -0.855. For RRIRWRPPRLPRPRPRPAPAPRP, the “shrunken log2 fold change” value was 1.38. With RRIRKRPPRLPRPRPRPAAHPRP the “shrunken log2 fold change” value was 0.408. For RRIRTRPPRLPRPRPRPNDFPRP, the “shrunken log2 fold change” value was -0.205. For RRIRHRPPRLPRPRPRPHIWPRP, the “shrunken log2 fold change” value was -0.835. For RRIRSRPPRLPRPRPRPETTPRP, the “shrunken log2 fold change” value was 0.461. RRIRERPPRLPRPRPRPGPYPRP was tested, and the “shrunken log2 fold change” value was -0.208. For RRIRNRPPRLPRPRPRPGAIPRP, the “shrunken log2 fold change” value was 0.0755. RRIRDRPPRLPRPRPRPEPVPRP was tested, and the “shrunken log2 fold change” value was 0.576. For RRIRSRPPRLPRPRPRPHDYPRP, the “shrunken log2 fold change” value was 0.0635. For RRIRCRPPRLPRPRPRPWMPPRP, the “shrunken log2 fold change” value was -0.178. RRIRMRPPRLPRPRPRPEWNPRP was tested, and the “shrunken log2 fold change” value was 0.406. RRIRKRPPRLPRPRPRPGQLPRP was tested, and the “shrunken log2 fold change” value was 0.236. With RRIRQRPPRLPRPRPRPNTFPRP the “shrunken log2 fold change” value was -0.666. In the case of RRIRVRPPRLPRPRPRPLDMPRP, the “shrunken log2 fold change” value is reported as -0.024. For RRIRIRPPRLPRPRPRPGRFPRP, the “shrunken log2 fold change” value was 0.138. For RRIRGRPPRLPRPRPRPEVGPRP, the “shrunken log2 fold change” value was 1.52. For RRIRGRPPRLPRPRPRPHFAPRP, the “shrunken log2 fold change” value was 0.628.
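Also: peptides expressed intracellularly from a pBAD plasmid library in pooled LB shake-flask culture, induced with 0.3% L-arabinose, DNA abundance read by NGS, three biological replicates, DESeq2 with apeglm shrinkage.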
